Assays:
[1] = Single oral capsule dose in NHP: plasma total IL-10; format: in vivo, Macaca fascicularis
Description: IL-10 delivery constructs (SEQ ID NO: 5) and caffeine were filled by weight into size-1 Capsugel V-Cap Hydroxypropyl Methylcellulose (HPMC) capsules, for oral administration. The capsules were then successively coated in a pan spray coater with three layers of polymers. The first and third layer were thin coatings of HPMC, the first to seal the crease where the capsule shells come together, and the third to minimize sticking of the capsules to each other. The second coating layer was comprised of a 50:50 mixture of Eudragit® (Evonik Industries AG) enteric acrylic polymers FS 30 D and L 30 D-55, designed to dissolve and allow the capsule to open at pH 6.5.
The MSD Small Spot IL-10 plate was washed 3 times with PBST before use. Standards were prepared in Diluent 2 (MSD Cat No R51BB), and samples diluted 2-fold in Diluent 2. Standards and diluted samples were added to the assay plate and the plate incubated for 2 hours at room temperature with shaking. The plate was washed 3 times with PBST and 1×SULFO TAG anti-huIL-10. Antibody was added to the plate before incubation for 1 hour at room temperature with shaking. Following a wash step, 2×MSD Read buffer was added to the wells of the plate and the plate is read in the MSD Sector Imager 600 plate reader. The lower limit of detection of each analyte is defined as 2.5 standard deviation above background.
Plasma samples were analyzed for Total IL-10, IL-1Ra, caffeine content and a panel of proinflammatory cytokines. Assay LLOQs were: total IL-10=0.3 pg/mL; IL-1Ra=78 pg/mL; and caffeine=[…]. Plasma concentration of IL-10 can refer to the concentration in plasma of both naturally occurring IL-10 and IL-10 appended to a carrier (for example, IL-10 in an IL-10 delivery construct described herein).
IL-10 delivery construct dosing at multiple fixed doses in non-naïve adult male Macaca fascicularis was conducted by Valley Biosystems (West Sacramento, Calif.). […] Dosing groups are described in TABLE 45.
Animals were fasted until after the 3 hour blood sample collection, when food was given. For dosing, the animals were manually restrained and a bite block placed between the jaws. A pill gun containing the dosing capsule was inserted into the back of the oral cavity and the capsule released. Up to 4 capsules were administered consecutively and a small amount of water given to induce swallowing. Once the administration of the dose was confirmed, the bite block was removed and the head released.
Blood samples were collected in K2EDTA tubes from each animal pre-dose and at 0.5, 1, 2, 3, 4, 5, 6, 7, 8, and 24 hours post-dose. Animals were returned to home cages following the 2-hour sample collection. Following physical restraint, blood samples were collected via direct venous puncture using a cephalic, femoral or saphenous vein, which were processed to plasma and stored frozen at −60° C. until shipment.

[2] = system: IFNγ, IL-1β, IL-2, IL-6, IL-8, TNFα; test: Single oral capsule dose in NHP: plasma proinflammatory cytokines; format: in vivo, Macaca fascicularis
Method: The panel of cytokines (IFNγ, IL-1β, IL-2, IL-6, and IL-8) was evaluated using a multiplex kit available from MSD. The assays in this panel were sandwich immunoassays. The MSD plate came precoated with capture antibodies on independent and pre-defined spots, and samples were quantitated against an 8-point standard curve prepared using a mixture of the cytokines (Proinflammatory Panel 1 (human) Calibrator Blend) from MSD. The standards included 0 pg/mL and these concentration ranges: IFNγ (0.37-1500 pg/mL), IL-1β (0.14-589 pg/mL), IL-2 (0.36-1490 pg/mL), IL-6 (0.18-721 pg/mL) and IL-8 (0.14-553 pg/mL).
The MSD plate (pre-coated with capture antibodies) was washed 3 times with PBST before use. Standards were prepared in Diluent 2 (MSD Cat No R51BB) and test samples diluted 2 fold in Diluent 2. Standards and diluted samples were added to the assay plate, and the plate incubated for 2 hours at room temperature with shaking. The plate was washed 3 times with PBST, and a mixture of 1×SULFO TAG detection antibodies added to the plate. The plate was incubated for 2 hours at room temperature with shaking. Following a wash step, 2×MSD Read buffer was added to the wells of the plate, and the plate read using the MSD Sector Imager 600 plate reader. The lower limit of detection of each analyte was defined as 2.5 standard deviation above background.
The purpose of the TNFα immunoassay was to quantify NHP TNFα concentration in plasma. The antibody pair in this immunoassay reacted with both human and NHP TNFα. Samples were quantitated using an 8-point standard curve prepared from a human TNFα calibrator that ranges in concentration from 5.6-4052 pg/mL and includes 0 pg/mL.
The biotinylated anti-NHP TNFα capture antibody was added to a MSD Small Spot Streptavidin plate and incubated for an hour at RT with shaking. Controls were prepared in pooled plasma, standards in Diluent 43 (MSD Cat No R50AG), and test samples were diluted 2 fold in Diluent 43. […] Following a wash step, 2×MSD Read buffer was added to the wells of the plate, and the plate read using the MSD Sector Imager 600 plate reader. […]

[3] = system: T lymphocytes and macrophages; test: Cellular target in Lamina propria (CD3, F4/80, pSTAT3) after oral gavage; format: in vivo, mouse
[4] = Tablet compression force screening: tablet properties, dimer purity and recovery; format: physicochemical
Method: Various compression forces were used to create F1 tablets (TABLE 31) and F2 tablets (TABLE 32). Dimer purity of the target construct was also examined following compaction into a tablet. […] Dimer recovery was also assessed following dissolution of various tablets at pH 7.0 (FIGS. 20A-20D).
An additional tablet (F3) was created, which was similar to an F1 tablet but with glyceryl dibehenate in place of magnesium stearate (TABLE 33). This substitution was made due to incompatibility of magnesium stearate in dissolution of target constructs in solution.

[5] = Pan-colonic administration via sigmoidoscopy in NHP: plasma PK/PD; format: in vivo, cynomolgus monkeys
Method: IL-10 delivery construct solution (at concentrations of 0.1, 0.3 and 1.0 mg/mL for the low, mid and high-dose groups respectively) was administered via the rectal route using sigmoidoscopy and a syringe connected to a spray nozzle with a 360° spray pattern. Serial biopsy samples were collected by sigmoidoscopy (pre-dose, 0.25, 0.5, 0.75, 8 and 24-28 hours post dose). Serial plasma samples from 0 min pre-dose to between 24-28 hours post-dose were collected for analysis for the IL-10 delivery construct.

B1: IL-10 delivery construct: recombinant homodimeric fusion protein: N-terminal methionine, cholix386 domain, polyGlySer spacer, recombinant human IL-10 (protein)
chain: MVEEALNIFDECRSPCSLTPEPGKPIQSKLSIPSDVVLDEGVLYYSMTINDEQNDIKDEDKGESIITIGEFATVRATRHYVNQDAPFGVIHLDITTENGTKTYSYNRKEGEFAINWLVPIGEDSPASIKISVDELDQQRNIIEVPKLYSIDLDNQTLEQWKTQGNVSFSVTRPEHNIAISWPSVSYKAAQKEGSRHKRWAHWHTGLALCWLVPMDAIYNYITQQNCTLGDNWFGGSYETVAGTPKVITVKQGIEQKPVEQRIHFSKGNAMSALAAHRVCGVPLETLARSRKPRDLTDDLSCAYQAQNIVSLFVATRILFSHLDSVFTLNLDEQEPEVAERLSDLRRINENNPGMVTQVLTVARQIYNDYVTHHPGLTPEQTSAGAQAGGGGSGGGGSGGGGSPGQGTQSENSCTHFPGNLPNMLRDLRDAFSRVKTFFQMKDQLDNLLLKESLLEDFKGYLGCQALSEMIQFYLEEVMPQAENQDPDIKAHVNSLGENLKTLRLRLRRCHRFLPCENKSKAVEQVKNAFNKLQEKGIYKAMSEFDIFINYIEAYMTMKIRN
modifications: homodimer
For B1, the “plasma total IL-10 Tmax” value ([1]; 1 mg) was 4 h, the “plasma total IL-10 Tmax” value ([1]; 4 mg) was 3 h and the “plasma total IL-10 Tmax” value ([1]; 20.5 mg) was 2 hours post dose. For the same molecule, the “plasma total IL-10 Tmax” value ([1]; 82 mg) was 2 hours post dose, the “plasma total IL-10 Cmax” value ([1]; 82 mg (4×20.5 mg capsules), oral) was 1.34 pg/mL and the “plasma IFNγ, IL-1β, IL-2, IL-8, IL-6” value ([2]; 1-82 mg oral capsules) was “not associated with any consistent trends”. The “plasma TNFα” value ([2]; all samples below limit of detection) was “no induction”, the “plasma IL-1Ra and IFN-γ after oral enteric-coated capsules” value ([2]; compared with intravenous administration) was “increased IL-1Ra without significant induction of IFN-γ” and the “CD3+ cells co-localizing with pSTAT3” value ([3]; 40 min after oral gavage) was “moderate proportion”. The “F4/80 (macrophage) co-localization with pSTAT3” value ([3]; after oral gavage) was “extensive co-localization with pSTAT3”, the “robustness of protein to compaction, granulation and tableting (dimer purity)” value [4] was “robust to compaction and granulation, although some aggregation was observed in final tablet form” and the “plasma construct concentration relative to total IL-10” value ([5]; 3 mg and 10 mg) was 10 fold lower. For the same molecule, the “time to detection of total IL-10 in plasma” value ([5]; 1, 3, 10 mg pan-colonic) was no more than 15 min, the “systemic IL-6” value ([5]; 3 and 10 mg) was “moderately induced” and the “systemic IFN-γ, IL-1β, IL-2, IL-8” value ([5]; cynomolgus monkey, in vivo) was “did not lead to an increase”. For the same molecule, the “time of maximal plasma IL-1Ra” value ([5]; cynomolgus monkey, in vivo) was 3 to 4 h.
